In paper PMC8967715 (2022):

What was measured:
Test in all cases: FACS
[1] = biological target: WIV1
[2] = biological target: SARS-CoV-2 RBD (Wuhan-Hu-1, Asn331–Thr531), yeast-displayed (SARS-CoV-2 (Wuhan-Hu-1), UniProt P0DTC2 331-531)
[3] = biological target: BtKY72 RBD, yeast-displayed (bat sarbecovirus BtKY72)

Row | Binder | Kd [1] [µM] | Kd [2] [µM] | Kd [3] [µM]
1 | Mouse (Mus musculus) ACE2 (residues 18–740) with His tag and human IgG1 Fc (Fc fusion) QSLTEENAKTFLNNFNQEAEDLSYQSSLASWNYNTNITEENAQKMSEAAAKWSAFYEEQSKTAQSFSLQEIQTPIIKRQLQALQQSGSSALSADKNKQLNTILNTMSTIYSTGKVCNPKNPQECLLLEPGLDEIMATSTDYNSRLWAWEGWRAEVGKQLRPLYEEYVVLKNEMARANNYNDYGDYWRGDYEAEGADGYNYNRNQLIEDVERTFAEIKPLYEHLHAYVRRKLMDTYPSYISPTGCLPAHLLGDMWGRFWTNLYPLTVPFAQKPNIDVTDAMMNQGWDAERIFQEAEKFFVSVGLPHMTQGFWANSMLTEPADGRKVVCHPTAWDLGHGDFRIKMCTKVTMDNFLTAHHEMGHIQYDMAYARQPFLLRNGANEGFHEAVGEIMSLSAATPKHLKSIGLLPSDFQEDSETEINFLLKQALTIVGTLPFTYMLEKWRWMVFRGEIPKEQWMKKWWEMKREIVGVVEPLPHDETYCDPASLFHVSNDYSFIRYYTRTIYQFQFQEALCQAAKYNGSLHKCDISNSTEAGQKLLKMLSLGNSEPWTKALENVVGARNMDVKPLLNYFQPLFDWLKEQNRNSFVGWNTEWSPYADQSIKVRISLKSALGANAYEWTNNEMFLFRSSVAYAMRKYFSIIKNQTVPFLEEDVRVSDLKPRVSFYFFVTSPQNVSDVIPRSEVEDAIRMSRGRINDVFGLNDNSLEFLGIHPTLEPPYQPPVT | ~3.98 | > 10 | 
2 | R. affinis 787 ACE2 residues 19–615 with C-terminal human IgG1 Fc (Genscript) (Fc fusion) STTEDRAKIFLDNFNREAEELSYQSSLASWEYNTNISDENVQKMDEAGAKWSAFYEEQSKLAKNYPLEEIQTVPVKLQLQILQQSGSPVLSEDKSKRLNSILNAMSTIYSTGKVCKPNNPQECFLLEPGLDNIMGTSKDYNERLWAWEGWRAEVGKQLRPLYEEYVVLKNEMARGYHYEDYGDYWRRDYETEESSGSGYSRDQLMKDVDRIFTEIKPLYEHLHAYVRTKLMDTYPFHISPTGCLPAHLLGDMWGRFWTNLYPLTVPFGQKPNIDVTDAMVNQGWDANRIFKEAEKFFVSVGLPNMTEGFWNNSMLTEPGDGRKVVCHPTAWDLGKGDFRIKMCTKVTMEDFLTAHHEMGHIQYDMAYATQPYLLRNGANEGFHEAVGEVMSLSVATPKHLKTMGLLSPDFLEDNETEINFLLKQALNIVGTLPFTYMLEKWRWMVFRGEIPKEEWMKKWWEMKRDLVGVVEPVPHDETYCDPASLFHVANDYSFIRYYTRTIFEFQFHEALCRIAQHDGPLHKCDISNSTDAGKKLHQMLSVGKSQPWTVTLKDIVDSRNMDVGPLLRYFEPLYTWLQEQNRKSYVGWNTDWSPYSD |  |  | 0.1
